Source: US20240368663A1, “CELL-FREE BIOPRODUCTION OF B-CRYPTOXANTHIN AND ZEAXANTHIN” (DEBUT BIOTECHNOLOGY, INC., priority 2021, published 2024)

What was measured:
[1] = cited from earlier work
[2] = Cell-free conversion of β-carotene to zeaxanthin with cell lysate expressing CrtZ; type: biochemical; conditions: 1.67 mM β-carotene, 24 hours
Experimental: Enzyme Expression and Purification: All genes were synthesized and cloned into expression plasmids and then transformed into E. coli cells for expression. Cells were grown in Terrific Broth media supplemented with 50 μg/mL kanamycin sulfate at 37° C. and 200 rpm until A595=0.6. Cells were cooled to 18° C., protein expression was induced, and the cultures were grown for an additional 18 h. Cell pellets were collected by centrifugation, and then resuspended in a 1.8 mL lysis buffer (50 mM Tris pH 8.5, 150 mM NaCl, 10% Glycerol (v/v)) per gram of cell paste. Cell lysates were prepared by sonication and clarified by centrifugation at 11,000×g for 10 minutes, at 4° C. After clarification, lysate was kept on ice or flash frozen and stored at −80° C. for later use.
Analytical methods: For sampling, 5× volume of THE was mixed with the reaction fluid, followed by high-speed centrifugation. Samples were run on an HPLC system to examine the amount of β-cryptoxanthin and zeaxanthin present in the reaction mixture. The HPLC method was as follows: An Agilent 1200 HPLC was fitted with an Acclaim C-30 Column 250 mm×4.6 mm, 5 μm, equipped with an Acclaim C-30 guard column. The column was heated to 20° C. with the sample block being maintained at 20° C. For each sample, 10 μL was injected and the product was eluted at a flow rate of 1.0 ml/min using Methanol (solvent A) and tert-butyl-methyl ether (solvent B) with the following gradient: 80% A to 65% A for 10 min, 65% A to 10% A for 10 min, 10% A for 5 min, 10% A to 80% for 0.5 min, and 80% A for 5.5 min for column equilibration. The run time was a total of 31 minutes with zeaxanthin eluting at 7.2 mins, β-cryptoxanthin eluting at 12.2 minutes, and β-carotene eluting at 16.9 min. A diode array detector (DAD) was used for the detection of the molecule of interest at 450 nm.
As described herein, β-carotene is hydroxylated by the CrtZ enzyme (CrtZ, EC1.14.15.24) to form β-cryptoxanthin, and then β-cryptoxanthin is hydroxylated by CrtZ to form Zeaxanthin. […]

[3] = 2% polysorbate 20, 6% THE, 0.2 mM FeSO4, 16° C.

## CC1=C(/C=C/C(C)=C/C=C/C(C)=C/C=C/C=C(C)/C=C/C=C(C)/C=C/C2=C(C)C[C@@H](O)CC2(C)C)C(C)(C)CCC1 [β-cryptoxanthin]
[1]
  solubility in water: insoluble in water

## CC1=C(/C=C/C(C)=C/C=C/C(C)=C/C=C/C=C(C)/C=C/C=C(C)/C=C/C2=C(C)CCCC2(C)C)C(C)(C)CCC1 [β-carotene]
[1]
  solubility in water: insoluble in water

B1: P. ananatis CrtZ: β-carotene hydroxylase enzyme (CrtZ, EC1.14.15.24) from P. ananatis, used as E. coli cell lysate; likely Pantoea WP_013027996.1 (protein, listed as Pantoea sp.)
chain: MLWIWNALIVFVTVIGMEVVAALAHKYIMHGWGWGWHLSHHEPRKGAFEVNDLYAVVFAALSILLIYLGSTGMWPLQWIGAGMTAYGLLYFMVHDGLVHQRWPFRYIPRKGYLKRLYMAHRMHHAVRGKEGCVSFGFLYAPPLSKLQATLRERHGARAGAARDAQGGEDEPASGK
[2]; 2% polysorbate 20 (v/v), 6% THE (v/v), 0.2 mM FeSO4, concentrated cell lysate, 16° C.
  β-carotene substrate converted into zeaxanthin: 84 % (molar ratio)
[2]; [3]
  zeaxanthin concentration produced: ~1.4 mM
  zeaxanthin titer produced: 796 mg/L
